The values below are quoted from earlier work in patent US20250332254A1, “METHODS FOR TREATING PATIENTS WITH FAMILIAL HYPERCHOLESTEROLEMIA” (REGENERON PHARMACEUTICALS, INC., priority 2016, published 2025).

The data set addresses T1, ANGPTL3 (Mus musculus, UniProt Q9R182).
T1 construct: host or cells: mouse, in vivo
T1 sequence (Q9R182 17-455): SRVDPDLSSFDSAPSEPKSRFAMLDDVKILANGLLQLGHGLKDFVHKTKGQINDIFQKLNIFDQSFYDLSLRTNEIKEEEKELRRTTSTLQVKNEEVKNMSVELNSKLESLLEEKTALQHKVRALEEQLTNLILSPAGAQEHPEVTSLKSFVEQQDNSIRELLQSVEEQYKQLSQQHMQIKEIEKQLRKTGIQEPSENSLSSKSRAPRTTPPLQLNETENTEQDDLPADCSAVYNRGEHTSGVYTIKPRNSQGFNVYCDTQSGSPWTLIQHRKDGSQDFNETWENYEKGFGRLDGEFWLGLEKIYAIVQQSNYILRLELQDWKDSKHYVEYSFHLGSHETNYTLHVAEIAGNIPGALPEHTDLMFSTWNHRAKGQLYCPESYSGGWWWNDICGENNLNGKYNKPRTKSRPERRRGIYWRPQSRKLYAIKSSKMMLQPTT
Particulars: mouse model; Wang, et al. 2015; cited from earlier work.

Consider “evinacumab: human anti-ANGPTL3 monoclonal antibody; HCVR SEQ ID NO:1, LCVR SEQ ID NO:5”, for which the “number of VLDLs secreted by the liver and character of VLDL particles” value is listed as “did not affect the number of VLDLs secreted by the liver, but qualitatively altered the VLDL particles that were made”.
